Experimental data published in patent US20240270846A1 (published 2024).

Biological target: T1, CD3 epsilon homodimer protein (UniProt P07766 23-126)
T1 construct: construct not described; homodimer as printed; also called CD3 (CD3 epsilon)
Assay: SPR Biacore T200, CD3 epsilon homodimer immobilized; vs unaltered GLS3000;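 further: antibody variants flowed as analyte over CD3 epsilon homodimer amine-coupled to a CM4 chip, at 25 °C in HBS-EP+ running buffer, fitted with Biacore T200 Evaluation Software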

T1 sequence (P07766 23-126): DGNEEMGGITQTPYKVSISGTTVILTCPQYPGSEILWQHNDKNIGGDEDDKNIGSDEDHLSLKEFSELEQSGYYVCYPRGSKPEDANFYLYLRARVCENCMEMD

Binder	KD ratio to GLS3000 (Affinity up)
GLS3000 R54A (Kabat) L chain altered form, one-arm antibody with CE115HA000 (antibody, human IgG1, kappa, L234A L235A, N297A, name in Kabat numbering, one-arm antibody) heavy: QVQLVESGGGVVQPGRSLRLSCAASGFTFSNAWMHWVRQAPGKGLEWVAQIKAKSNNYATYYAESVKGRFTISRDDSKNSLYLQMNSLKTEDTAVYYCRYVHYGAYYGVDAWGQGTTVTVSSASTKGPSVFPLAPSSKSTSGGTAALGCLVKDYFPEPVTVSWNSGALTSGVHTFPAVLQSSGLYSLSSVVTVPSSSLGTQTYICNVNHKPSNTKVDKKVEPKSCDKTHTCPPCPAPEAAGGPSVFLFPPKPKDTLMISRTPEVTCVVVDVSHEDPEVKFNWYVDGVEVHNAKTKPREEQYASTYRVVSVLTVLHQDWLNGKEYKCKVSNKALPAPIEKTISKAKGQPREPQVYTLPPSRCELTKNQVSLSCAVKGFYPSDIAVEWESNGQPENNYKTTPPVLDSDGSFFLVSKLTVDKSRWQQGNVFSCSVMHEALHNHYTQKSLSLSPDYKDDDDK EPKSSDKTHTCPPCPAPELLGGPSVFLFPPKPKDTLMISRTPEVTCVVVDVSHEDPEVKFNWYVDGVEVHNAKTKPREEQYNSTYRVVSVLTVLHQDWLNGKEYKCKVSNKALPAPIEKTISKAKGQPREPQVCTLPPSRDELTKNQVSLWCLVKGFYPSDIAVEWESNGQPENNYKTTPPVLDSDGSFFLYSKLTVDKSRWQQGNVFSCSVMHEALHNRYTQKSLSLSP light: DIVMTQSPLSLPVTPGEPASISCRSSQSLVHSNRNTYLHWYQQKPGQAPRLLIYKVSNAFSGVPDRFSGSGSGTDFTLKISRVEAEDVGVYYCGQGTQVPYTFGQGTKLEIKRTVAAPSVFIFPPSDEQLKSGTASVVCLLNNFYPREAKVQWKVDNALQSGNSQESVTEQDSKDSTYSLSSTLTLSKADYEKHKVYACEVTHQGLSSPVTKSFNRGEC	0.85
GLS3000 R29Y (Kabat) L chain altered form, one-arm antibody with CE115HA000 (antibody, human IgG1, kappa, L234A L235A, N297A, name in Kabat numbering, one-arm antibody) heavy: QVQLVESGGGVVQPGRSLRLSCAASGFTFSNAWMHWVRQAPGKGLEWVAQIKAKSNNYATYYAESVKGRFTISRDDSKNSLYLQMNSLKTEDTAVYYCRYVHYGAYYGVDAWGQGTTVTVSSASTKGPSVFPLAPSSKSTSGGTAALGCLVKDYFPEPVTVSWNSGALTSGVHTFPAVLQSSGLYSLSSVVTVPSSSLGTQTYICNVNHKPSNTKVDKKVEPKSCDKTHTCPPCPAPEAAGGPSVFLFPPKPKDTLMISRTPEVTCVVVDVSHEDPEVKFNWYVDGVEVHNAKTKPREEQYASTYRVVSVLTVLHQDWLNGKEYKCKVSNKALPAPIEKTISKAKGQPREPQVYTLPPSRCELTKNQVSLSCAVKGFYPSDIAVEWESNGQPENNYKTTPPVLDSDGSFFLVSKLTVDKSRWQQGNVFSCSVMHEALHNHYTQKSLSLSPDYKDDDDK EPKSSDKTHTCPPCPAPELLGGPSVFLFPPKPKDTLMISRTPEVTCVVVDVSHEDPEVKFNWYVDGVEVHNAKTKPREEQYNSTYRVVSVLTVLHQDWLNGKEYKCKVSNKALPAPIEKTISKAKGQPREPQVCTLPPSRDELTKNQVSLWCLVKGFYPSDIAVEWESNGQPENNYKTTPPVLDSDGSFFLYSKLTVDKSRWQQGNVFSCSVMHEALHNRYTQKSLSLSP light: DIVMTQSPLSLPVTPGEPASISCRSSQSLVHSNYNTYLHWYQQKPGQAPRLLIYKVSNRFSGVPDRFSGSGSGTDFTLKISRVEAEDVGVYYCGQGTQVPYTFGQGTKLEIKRTVAAPSVFIFPPSDEQLKSGTASVVCLLNNFYPREAKVQWKVDNALQSGNSQESVTEQDSKDSTYSLSSTLTLSKADYEKHKVYACEVTHQGLSSPVTKSFNRGEC	1.08
GLS3000 R29V (Kabat) L chain altered form, one-arm antibody with CE115HA000 (antibody, human IgG1, kappa, L234A L235A, N297A, name in Kabat numbering, one-arm antibody) heavy: QVQLVESGGGVVQPGRSLRLSCAASGFTFSNAWMHWVRQAPGKGLEWVAQIKAKSNNYATYYAESVKGRFTISRDDSKNSLYLQMNSLKTEDTAVYYCRYVHYGAYYGVDAWGQGTTVTVSSASTKGPSVFPLAPSSKSTSGGTAALGCLVKDYFPEPVTVSWNSGALTSGVHTFPAVLQSSGLYSLSSVVTVPSSSLGTQTYICNVNHKPSNTKVDKKVEPKSCDKTHTCPPCPAPEAAGGPSVFLFPPKPKDTLMISRTPEVTCVVVDVSHEDPEVKFNWYVDGVEVHNAKTKPREEQYASTYRVVSVLTVLHQDWLNGKEYKCKVSNKALPAPIEKTISKAKGQPREPQVYTLPPSRCELTKNQVSLSCAVKGFYPSDIAVEWESNGQPENNYKTTPPVLDSDGSFFLVSKLTVDKSRWQQGNVFSCSVMHEALHNHYTQKSLSLSPDYKDDDDK EPKSSDKTHTCPPCPAPELLGGPSVFLFPPKPKDTLMISRTPEVTCVVVDVSHEDPEVKFNWYVDGVEVHNAKTKPREEQYNSTYRVVSVLTVLHQDWLNGKEYKCKVSNKALPAPIEKTISKAKGQPREPQVCTLPPSRDELTKNQVSLWCLVKGFYPSDIAVEWESNGQPENNYKTTPPVLDSDGSFFLYSKLTVDKSRWQQGNVFSCSVMHEALHNRYTQKSLSLSP light: DIVMTQSPLSLPVTPGEPASISCRSSQSLVHSNVNTYLHWYQQKPGQAPRLLIYKVSNRFSGVPDRFSGSGSGTDFTLKISRVEAEDVGVYYCGQGTQVPYTFGQGTKLEIKRTVAAPSVFIFPPSDEQLKSGTASVVCLLNNFYPREAKVQWKVDNALQSGNSQESVTEQDSKDSTYSLSSTLTLSKADYEKHKVYACEVTHQGLSSPVTKSFNRGEC	2.25

The next lines start with the values.

KD ratio to GLS3000 (Affinity up)	Binder
1.02	GLS3000 R29T (Kabat) L chain altered form, one-arm antibody with CE115HA000 (antibody, human IgG1, kappa, L234A L235A, N297A, name in Kabat numbering, one-arm antibody) heavy: QVQLVESGGGVVQPGRSLRLSCAASGFTFSNAWMHWVRQAPGKGLEWVAQIKAKSNNYATYYAESVKGRFTISRDDSKNSLYLQMNSLKTEDTAVYYCRYVHYGAYYGVDAWGQGTTVTVSSASTKGPSVFPLAPSSKSTSGGTAALGCLVKDYFPEPVTVSWNSGALTSGVHTFPAVLQSSGLYSLSSVVTVPSSSLGTQTYICNVNHKPSNTKVDKKVEPKSCDKTHTCPPCPAPEAAGGPSVFLFPPKPKDTLMISRTPEVTCVVVDVSHEDPEVKFNWYVDGVEVHNAKTKPREEQYASTYRVVSVLTVLHQDWLNGKEYKCKVSNKALPAPIEKTISKAKGQPREPQVYTLPPSRCELTKNQVSLSCAVKGFYPSDIAVEWESNGQPENNYKTTPPVLDSDGSFFLVSKLTVDKSRWQQGNVFSCSVMHEALHNHYTQKSLSLSPDYKDDDDK EPKSSDKTHTCPPCPAPELLGGPSVFLFPPKPKDTLMISRTPEVTCVVVDVSHEDPEVKFNWYVDGVEVHNAKTKPREEQYNSTYRVVSVLTVLHQDWLNGKEYKCKVSNKALPAPIEKTISKAKGQPREPQVCTLPPSRDELTKNQVSLWCLVKGFYPSDIAVEWESNGQPENNYKTTPPVLDSDGSFFLYSKLTVDKSRWQQGNVFSCSVMHEALHNRYTQKSLSLSP light: DIVMTQSPLSLPVTPGEPASISCRSSQSLVHSNTNTYLHWYQQKPGQAPRLLIYKVSNRFSGVPDRFSGSGSGTDFTLKISRVEAEDVGVYYCGQGTQVPYTFGQGTKLEIKRTVAAPSVFIFPPSDEQLKSGTASVVCLLNNFYPREAKVQWKVDNALQSGNSQESVTEQDSKDSTYSLSSTLTLSKADYEKHKVYACEVTHQGLSSPVTKSFNRGEC
0.73	GLS3000 S25A (Kabat) L chain altered form, one-arm antibody with CE115HA000 (antibody, human IgG1, kappa, L234A L235A, N297A, name in Kabat numbering, one-arm antibody) heavy: QVQLVESGGGVVQPGRSLRLSCAASGFTFSNAWMHWVRQAPGKGLEWVAQIKAKSNNYATYYAESVKGRFTISRDDSKNSLYLQMNSLKTEDTAVYYCRYVHYGAYYGVDAWGQGTTVTVSSASTKGPSVFPLAPSSKSTSGGTAALGCLVKDYFPEPVTVSWNSGALTSGVHTFPAVLQSSGLYSLSSVVTVPSSSLGTQTYICNVNHKPSNTKVDKKVEPKSCDKTHTCPPCPAPEAAGGPSVFLFPPKPKDTLMISRTPEVTCVVVDVSHEDPEVKFNWYVDGVEVHNAKTKPREEQYASTYRVVSVLTVLHQDWLNGKEYKCKVSNKALPAPIEKTISKAKGQPREPQVYTLPPSRCELTKNQVSLSCAVKGFYPSDIAVEWESNGQPENNYKTTPPVLDSDGSFFLVSKLTVDKSRWQQGNVFSCSVMHEALHNHYTQKSLSLSPDYKDDDDK EPKSSDKTHTCPPCPAPELLGGPSVFLFPPKPKDTLMISRTPEVTCVVVDVSHEDPEVKFNWYVDGVEVHNAKTKPREEQYNSTYRVVSVLTVLHQDWLNGKEYKCKVSNKALPAPIEKTISKAKGQPREPQVCTLPPSRDELTKNQVSLWCLVKGFYPSDIAVEWESNGQPENNYKTTPPVLDSDGSFFLYSKLTVDKSRWQQGNVFSCSVMHEALHNRYTQKSLSLSP light: DIVMTQSPLSLPVTPGEPASISCRASQSLVHSNRNTYLHWYQQKPGQAPRLLIYKVSNRFSGVPDRFSGSGSGTDFTLKISRVEAEDVGVYYCGQGTQVPYTFGQGTKLEIKRTVAAPSVFIFPPSDEQLKSGTASVVCLLNNFYPREAKVQWKVDNALQSGNSQESVTEQDSKDSTYSLSSTLTLSKADYEKHKVYACEVTHQGLSSPVTKSFNRGEC
8.86	GLS3000 S25D (Kabat) L chain altered form, one-arm antibody with CE115HA000 (antibody, human IgG1, kappa, L234A L235A, N297A, name in Kabat numbering, one-arm antibody) heavy: QVQLVESGGGVVQPGRSLRLSCAASGFTFSNAWMHWVRQAPGKGLEWVAQIKAKSNNYATYYAESVKGRFTISRDDSKNSLYLQMNSLKTEDTAVYYCRYVHYGAYYGVDAWGQGTTVTVSSASTKGPSVFPLAPSSKSTSGGTAALGCLVKDYFPEPVTVSWNSGALTSGVHTFPAVLQSSGLYSLSSVVTVPSSSLGTQTYICNVNHKPSNTKVDKKVEPKSCDKTHTCPPCPAPEAAGGPSVFLFPPKPKDTLMISRTPEVTCVVVDVSHEDPEVKFNWYVDGVEVHNAKTKPREEQYASTYRVVSVLTVLHQDWLNGKEYKCKVSNKALPAPIEKTISKAKGQPREPQVYTLPPSRCELTKNQVSLSCAVKGFYPSDIAVEWESNGQPENNYKTTPPVLDSDGSFFLVSKLTVDKSRWQQGNVFSCSVMHEALHNHYTQKSLSLSPDYKDDDDK EPKSSDKTHTCPPCPAPELLGGPSVFLFPPKPKDTLMISRTPEVTCVVVDVSHEDPEVKFNWYVDGVEVHNAKTKPREEQYNSTYRVVSVLTVLHQDWLNGKEYKCKVSNKALPAPIEKTISKAKGQPREPQVCTLPPSRDELTKNQVSLWCLVKGFYPSDIAVEWESNGQPENNYKTTPPVLDSDGSFFLYSKLTVDKSRWQQGNVFSCSVMHEALHNRYTQKSLSLSP light: DIVMTQSPLSLPVTPGEPASISCRDSQSLVHSNRNTYLHWYQQKPGQAPRLLIYKVSNRFSGVPDRFSGSGSGTDFTLKISRVEAEDVGVYYCGQGTQVPYTFGQGTKLEIKRTVAAPSVFIFPPSDEQLKSGTASVVCLLNNFYPREAKVQWKVDNALQSGNSQESVTEQDSKDSTYSLSSTLTLSKADYEKHKVYACEVTHQGLSSPVTKSFNRGEC
